Measurements published in patent US20230365658A1 (LAWRENCE LIVERMORE NATIONAL SECURITY, published 2023).
Numbering of substitutions follows the chain as printed.

B1: mAb_RBD_2130_FAB_20211231_00199 (antibody, V domains shown)
VH: EVQLVESGGGLVKPGGSLRLSCAASGFTFRDVWMSWVRQAPGKGLEWVGRIKSKIDGGTTDYAAPVKGRFTISRDDSKNTLYLQMNSLKTEDTAVYYCTTAGSYYYDTVGPGLPEGKFDYWGQGTLVTVSS
VL: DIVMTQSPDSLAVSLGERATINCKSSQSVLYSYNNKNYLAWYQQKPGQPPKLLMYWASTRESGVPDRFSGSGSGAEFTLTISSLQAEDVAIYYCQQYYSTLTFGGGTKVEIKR
B2: v2130_upsample_20220121_00009 (antibody, V domains shown)
VH: B1 VH with Y106D, F118I
VL: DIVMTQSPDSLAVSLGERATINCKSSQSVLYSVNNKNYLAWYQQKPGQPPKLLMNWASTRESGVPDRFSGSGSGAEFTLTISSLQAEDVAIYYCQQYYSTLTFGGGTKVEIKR
B3: v2130_upsample_20220121_00298 (antibody, V domains shown)
VH: B1 VH with I55E, Y106H
VL: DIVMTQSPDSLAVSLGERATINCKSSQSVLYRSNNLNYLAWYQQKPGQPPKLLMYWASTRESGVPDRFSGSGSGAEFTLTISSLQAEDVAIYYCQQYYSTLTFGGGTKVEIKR
B4: v2130_upsample_20220121_00354 (antibody, V domains shown)
VH: B1 VH with V109R, G112E
VL: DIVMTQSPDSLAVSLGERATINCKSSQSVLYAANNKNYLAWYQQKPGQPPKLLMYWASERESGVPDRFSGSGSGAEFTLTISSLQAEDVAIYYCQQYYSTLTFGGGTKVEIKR
B5: mAb_v2130Vanderbilt_184_20220114_00111 (antibody, V domains shown)
VH: B1 VH with G112E
VL: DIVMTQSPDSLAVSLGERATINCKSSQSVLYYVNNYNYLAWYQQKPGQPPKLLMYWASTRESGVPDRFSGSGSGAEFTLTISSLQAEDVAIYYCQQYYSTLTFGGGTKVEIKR
notes: also called LLNL198
B6: mAb_v2130JustStableLines_20220111_00002 (antibody, V domains shown)
VH: B1 VH with I55D
VL: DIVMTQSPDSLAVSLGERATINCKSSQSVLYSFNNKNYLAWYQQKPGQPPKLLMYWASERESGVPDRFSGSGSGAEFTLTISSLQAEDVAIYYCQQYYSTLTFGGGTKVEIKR
notes: also called LLNL010
B7: mAb_v2130Vanderbilt_184_20220114_00112 (antibody, V domains shown)
VH: B1 VH with G112E
VL: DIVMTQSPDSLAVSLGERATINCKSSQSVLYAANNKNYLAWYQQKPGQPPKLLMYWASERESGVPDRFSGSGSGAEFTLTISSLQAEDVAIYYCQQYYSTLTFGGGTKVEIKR

Assays:
[1] = target: T1, SARS-CoV-2 spike (S) glycoprotein, Omicron BA.2 (SARS-CoV-2, UniProt P0DTC2 14-1273); test: cell-based or functional assay
[2] = target: T2, SARS-CoV-2 spike (S) glycoprotein, Omicron BA.1 (SARS-CoV-2, UniProt P0DTC2 14-1273); test: cell-based or functional assay
[3] = target: T3, SARS-CoV-2 Spike-RBD, Delta (SARS-CoV-2, UniProt P0DTC2 319-541); test: Gyros full-curve immunoassay, mAb titrated on RBD, relative binding (FI)
T3 construct: domain: RBD; also called Delta RBD

[4] = target: T4, SARS-CoV-2 spike (S) glycoprotein, Omicron BA.1.1 (SARS-CoV-2, UniProt P0DTC2 14-1273); test: cell-based or functional assay
[5] = target: T5, SARS-CoV-2 spike (S) glycoprotein, Omicron BA.4 (SARS-CoV-2, UniProt P0DTC2 14-1273); test: cell-based or functional assay
[6] = target: SARS-CoV-2 spike (S) glycoprotein, Delta (B.1.617.2) (SARS-CoV-2, UniProt P0DTC2 14-1273); test: cell-based or functional assay
[7] = target: SARS-CoV-2 spike (S) glycoprotein, Omicron BA.5.5 (SARS-CoV-2, UniProt P0DTC2 14-1273); test: cell-based or functional assay
[8] = target: T2, SARS-CoV-2 spike (S) glycoprotein, …; test: cell-based or functional assay; remark: listed apart in the source
[9] = target: T4, SARS-CoV-2 spike (S) glycoprotein, …; test: cell-based or functional assay; remark: listed apart in the source
[10] = target: T1, SARS-CoV-2 spike (S) glycoprotein, …; test: cell-based or functional assay; remark: listed apart in the source
[11] = target: T5, SARS-CoV-2 spike (S) glycoprotein, …; test: cell-based or functional assay; remark: listed apart in the source
[12] = target: T6, SARS-CoV-2 spike (S) glycoprotein, D614G (SARS-CoV-2, UniProt P0DTC2 14-1273); test: cell-based or functional assay
[13] = target: T2, SARS-CoV-2 spike (S) glycoprotein, …; test: cell-based or functional assay; remark: listed apart in the source
[14] = target: T4, SARS-CoV-2 spike (S) glycoprotein, …; test: cell-based or functional assay; remark: listed apart in the source
[15] = target: T3, SARS-CoV-2 Spike-RBD, Delta; test: Gyrolab immunoassay, IgG titrated on Spike-RBD, relative binding (FI)
[16] = target: T1, SARS-CoV-2 spike (S) glycoprotein, …; test: cell-based or functional assay; remark: listed apart in the source
[17] = target: T5, SARS-CoV-2 spike (S) glycoprotein, …; test: cell-based or functional assay; remark: listed apart in the source
[18] = target: SARS-CoV-2 spike (S) glycoprotein, Omicron BA.2.75 (SARS-CoV-2, UniProt P0DTC2 14-1273); test: cell-based or functional assay
[19] = target: SARS-CoV-2 spike (S) glycoprotein, Omicron BA.2.12.1 (SARS-CoV-2, UniProt P0DTC2 14-1273); test: cell-based or functional assay
[20] = target: SARS-CoV-2 spike (S) glycoprotein, Omicron BA.5 (SARS-CoV-2, UniProt P0DTC2 14-1273); test: cell-based or functional assay
[21] = target: T6, SARS-CoV-2 spike (S) glycoprotein, D614G; test: cell-based or functional assay; remark: listed apart in the source
[22] = target: T2, SARS-CoV-2 spike (S) glycoprotein, …; test: cell-based or functional assay; remark: listed apart in the source
[23] = target: T4, SARS-CoV-2 spike (S) glycoprotein, …; test: cell-based or functional assay; remark: listed apart in the source

| Binder | pseudovirus neutralization IC50 [1] [ng/mL] | pseudovirus neutralization IC50 [2] [ng/mL] | pseudovirus neutralization IC50 [4] [ng/mL] | EC50 (read off the curve) [3] [ng/mL] | normalized pseudoneutralization IC50 [10] [ng/mL] | normalized pseudoneutralization IC50 [11] [ng/mL] | normalized pseudoneutralization IC50 [12] [ng/mL] | normalized pseudoneutralization IC50 [13] [ng/mL] | normalized pseudoneutralization IC50 [14] [ng/mL] | also measured |
| --- | --- | --- | --- | --- | --- | --- | --- | --- | --- | --- |
| B1 | 1.11 | 556 | – | – | – | – | – | – | – | – |
| B2 | – | – | – | – | – | – | – | – | – | binding result [3]: no binding (tested: about 150 ug/ml) |
| B3 | 566 | 626 | – | – | – | – | – | – | – | – |
| B4 | 0.515 | 0.178 | 0.475 | ~400 | – | – | – | – | – | authentic virus neutralization IC50 (FRNT) [5]: 3.04 ng/mL; authentic virus neutralization IC50 (FRNT) [6]: 6.23 ng/mL; authentic virus neutralization IC50 (FRNT) [7]: 2.82 ng/mL; authentic virus neutralization IC50 (FRNT) [8]: 4.23 ng/mL; authentic virus neutralization IC50 (FRNT) [9]: 9.65 ng/mL |
| B5 | 0.0392 | 118 | 603 | ~1000 | 0.162 | 34.3 | 3.02 | 32 | 4030 | EC50 (read off the curve) [15]: ~1000 ng/mL |
| B6 | 1.15 | 339 | – | ~2000 | 1.47 | 4.69 | 4.92 | 34.8 | > 10000 | EC50 (read off the curve) [15]: ~2000 ng/mL |
| B7 | 0.852 | 1.14 | 3.21 | – | 0.985 | 0.779 | 4.08 | 2.56 | 6.25 | authentic virus neutralization IC50 (FRNT, Vero-TMPRSS2) [16]: < 10 ng/mL; authentic virus neutralization IC50 (FRNT, Vero-TMPRSS2) [17]: < 10 ng/mL; fold improvement of pseudoviral neutralization over COV2-2130 [18]: 90 fold; pseudoviral neutralization IC50 [18]: 1.9 ng/mL; authentic virus neutralization IC50 (FRNT, Vero-TMPRSS2) [19]: < 10 ng/mL; authentic virus neutralization IC50 (FRNT, Vero-TMPRSS2) [20]: < 10 ng/mL; authentic virus neutralization IC50 (FRNT, Vero-TMPRSS2) [21]: < 10 ng/mL; authentic virus neutralization IC50 (FRNT, Vero-TMPRSS2) [22]: < 10 ng/mL; authentic virus neutralization IC50 (FRNT, Vero-TMPRSS2) [23]: < 10 ng/mL; authentic virus neutralization IC50 (FRNT) [5]: 7.47 ng/mL; authentic virus neutralization IC50 (FRNT) [6]: 33.9 ng/mL; authentic virus neutralization IC50 (FRNT) [7]: 5.29 ng/mL; authentic virus neutralization IC50 (FRNT) [8]: 5.53 ng/mL; authentic virus neutralization IC50 (FRNT) [9]: 39.2 ng/mL |
